In US20240239878A1 (SHANGHAI QILU PHARMACEUTICAL RESEARCH AND DEVELOPMENT CENTRE, published 2024):
Where two headings read alike, the source gives them in different places. Each block holds one binder with its values, some of them ahead of it.

What was measured:
[1] = target: T1, human DLL3 on SHP-77 cells (human, UniProt Q9NYJ7 27-618); assay: flow cytometry, SHP-77 cells
T1 construct: also called DLL3-expressing cells (SHP-77)
T1 sequence: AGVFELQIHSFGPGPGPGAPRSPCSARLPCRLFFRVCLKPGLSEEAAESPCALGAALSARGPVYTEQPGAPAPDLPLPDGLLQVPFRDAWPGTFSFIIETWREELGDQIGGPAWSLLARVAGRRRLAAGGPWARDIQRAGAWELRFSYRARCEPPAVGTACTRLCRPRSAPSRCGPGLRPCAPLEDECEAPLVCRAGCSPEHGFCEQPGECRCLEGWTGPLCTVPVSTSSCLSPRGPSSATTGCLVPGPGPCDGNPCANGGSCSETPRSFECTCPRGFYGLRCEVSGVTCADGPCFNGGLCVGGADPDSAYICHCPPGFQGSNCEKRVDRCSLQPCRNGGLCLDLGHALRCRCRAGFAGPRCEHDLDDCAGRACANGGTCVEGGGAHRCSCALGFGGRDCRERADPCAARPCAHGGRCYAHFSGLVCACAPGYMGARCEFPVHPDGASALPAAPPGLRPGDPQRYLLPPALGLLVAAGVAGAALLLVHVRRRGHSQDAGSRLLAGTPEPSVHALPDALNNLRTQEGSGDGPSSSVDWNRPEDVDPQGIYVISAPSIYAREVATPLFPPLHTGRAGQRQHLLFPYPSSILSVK
Method: (§1) Monoclonal selection was performed, and the expression level of DLL3 protein in the monoclonal cells were identified by flow cytometry. The culture was expanded and stored in storage for later use. SHP-77 and HEK293-cyno DLL3 cells were cultured. The culture medium for SHP-77 cells were RPMI1640+10% FBS, and the culture medium for HEK293 cyno DLL3 cells were DMEM+10% FBS+200 μg/ml Hygromycin. The cells were cultured in a T75 cell culture flask at a 37° ° C. in a 5% CO₂ incubator. When using cells, they are washed with sterile DPBS, digested with 0.25% trypsin EDTA for about 5 minutes, and then stopped with a complete medium.
(§2) The digested cells were centrifuged at 1000 rpm for 5 min at room temperature. The supernatant was discarded and the cells were resuspended in 100 μL of 1% BSA (in PBS). The cells were counted and adjusted to a cell density of 1E6/m. The dilute cells were seeded in a 96-well round-bottom culture plate (corning 3799), and centrifuged at 1500 rpm for 5 min at 4° C. The supernatant was discarded and the cells were stored at 4° C. until use. Antibody samples to be tested were diluted with 1% BSA (in PBS) at a starting concentration of 100 nM, downwards by a 10-fold gradient for 7 concentrations. The cells were resuspended with the diluted antibody at 100 μL/well and incubated for 1 hour at 4° C. The cells were centrifuged at 1500 rpm for 5 minutes at 4° C. and the supernatant was discarded. The cells were resuspended and washed with 160 μL of 1% BSA (in PBS), centrifuged at 1500 rpm for 5 minutes at 4° C. The supernatant was discarded. The secondary antibody (goat anti human IgG Fc PE) was diluted 1:200 with 1% BSA (in PBS) according to the manufacturer's instructions and the cells were resuspended with the diluted secondary antibody. 100 μL/well, and incubated for 0.5 h at 4° C. The cells were centrifuged at 1500 rpm for 5 minutes at 4° C. and the supernatant was discarded. The cells were resuspended and washed with 160 μL of 1% BSA (in PBS), centrifuged at 1500 rpm for 5 minutes at 4° C. The supernatant was discarded. The cells were resuspended in 100 μL of 1% BSA (in PBS), and filtered across a 300 mesh gauze. The mean fluorescence intensity of the PE channels was measured by flow cytometry.

[2] = target: T1, human DLL3 on SHP-77 cells; assay: flow cytometry, SHP-77 cells; remark: listed apart in the source
Method: (§3) SHP-77 and HEK293-cyno DLL3 cells were cultured. The culture medium for SHP-77 cells were RPMI1640+10% FBS, and the culture medium for HEK293 cyno DLL3 cells were DMEM+10% FBS+200 μg/ml Hygromycin. The cells were cultured in a T75 cell culture flask at a 37° C. 5% CO₂ incubator. When using cells, they are washed with sterile DPBS, digested with 0.25% trypsin EDTA for about 5 minutes, and then stopped with a complete medium.
as §2, with “antibody,” for “antibody.”
(§4) The analyzed mean fluorescence intensity was imported into Graphpad to analyze the median-binding concentration (hereinafter referred to as EC50) of antibody and cell and the top mean fluorescence intensity (Top MFI).

[3] = target: T2, Cynomolgus monkey DLL3 on HEK293 cells (HEK293-cyno DLL3) (Cynomolgus monkey, UniProt Q9NYJ7 27-618 (human entry)); assay: flow cytometry, HEK293-cyno DLL3 cells
T2 chain: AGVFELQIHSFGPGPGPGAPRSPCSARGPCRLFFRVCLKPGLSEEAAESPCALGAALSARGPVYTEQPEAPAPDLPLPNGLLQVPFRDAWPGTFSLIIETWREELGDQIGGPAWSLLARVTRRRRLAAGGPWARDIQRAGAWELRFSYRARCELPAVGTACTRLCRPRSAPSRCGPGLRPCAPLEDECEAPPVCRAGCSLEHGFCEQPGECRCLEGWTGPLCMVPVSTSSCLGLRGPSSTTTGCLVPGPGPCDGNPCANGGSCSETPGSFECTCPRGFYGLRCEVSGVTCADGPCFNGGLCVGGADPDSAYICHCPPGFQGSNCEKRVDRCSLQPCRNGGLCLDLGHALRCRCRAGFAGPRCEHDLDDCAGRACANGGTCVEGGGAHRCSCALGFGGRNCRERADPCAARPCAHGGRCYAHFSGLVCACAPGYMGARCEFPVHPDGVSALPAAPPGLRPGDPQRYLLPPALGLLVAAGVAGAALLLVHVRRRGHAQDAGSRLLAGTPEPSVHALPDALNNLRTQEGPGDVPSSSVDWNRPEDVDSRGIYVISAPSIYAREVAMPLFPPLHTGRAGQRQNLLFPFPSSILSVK
Method: as §1, §2

[4] = target: T2, Cynomolgus monkey DLL3 on HEK293 cells …; assay: flow cytometry, HEK293-cyno DLL3 cells
Method: as §3
as §2, with “antibody,” for “antibody.”
as §4

EC50 [1]: 0.374 nM
Top MFI [1]: 763 MFI
EC50 [2]: 0.396 nM
Top MFI [2]: 782 MFI
EC50 [3]: 0.897 nM
Top MFI [3]: 175 MFI
EC50 [4]: 2.08 nM
Top MFI [4]: 179 MFI
B1: DLL3-276 camelid-derived anti-DLL3 chimeric antibody (antibody, human IgG1, V domains shown)
VH: QVQLVESGGGSVQAGGSLNLSCATSGSTASTTYMGWFRQAPGKGREGVAIIYTARDNPWYANSVKGRFIISQDNAKKTLYLQMNTLKPEDTATYYCAATLANPTRTAWGQGTLVTVSS

EC50 [1]: 0.092 nM
Top MFI [1]: 886 MFI
EC50 [2]: 0.114 nM
Top MFI [2]: 935 MFI
EC50 [3]: 0.073 nM
Top MFI [3]: 220 MFI
EC50 [4]: 1.38 nM
Top MFI [4]: 232 MFI
B2: DLL3-12 camelid-derived anti-DLL3 chimeric antibody (antibody, human IgG1, V domains shown)
VH: QVQLVESGGGLVQPGESLRLSCAGSGFAFSSYDMHWVRQAPGKDFEWVSSISRDGRGPRYADFVKGRFTISKDNGRNMLYLQLNSLEIEDTAMYYCSKGYPIMGGTTQGTQVTVSS
